In assay [1] the target is T1, hypophosphorylated pRb (endogenous, differentiated C2C12 myotubes, DM) (mouse, UniProt P13405 2-921, hypophosphorylated (sites not given)).
T1 construct: Endogenous protein in extracts of cells kept in differentiation medium for 36 hr
T1 sequence (looked up): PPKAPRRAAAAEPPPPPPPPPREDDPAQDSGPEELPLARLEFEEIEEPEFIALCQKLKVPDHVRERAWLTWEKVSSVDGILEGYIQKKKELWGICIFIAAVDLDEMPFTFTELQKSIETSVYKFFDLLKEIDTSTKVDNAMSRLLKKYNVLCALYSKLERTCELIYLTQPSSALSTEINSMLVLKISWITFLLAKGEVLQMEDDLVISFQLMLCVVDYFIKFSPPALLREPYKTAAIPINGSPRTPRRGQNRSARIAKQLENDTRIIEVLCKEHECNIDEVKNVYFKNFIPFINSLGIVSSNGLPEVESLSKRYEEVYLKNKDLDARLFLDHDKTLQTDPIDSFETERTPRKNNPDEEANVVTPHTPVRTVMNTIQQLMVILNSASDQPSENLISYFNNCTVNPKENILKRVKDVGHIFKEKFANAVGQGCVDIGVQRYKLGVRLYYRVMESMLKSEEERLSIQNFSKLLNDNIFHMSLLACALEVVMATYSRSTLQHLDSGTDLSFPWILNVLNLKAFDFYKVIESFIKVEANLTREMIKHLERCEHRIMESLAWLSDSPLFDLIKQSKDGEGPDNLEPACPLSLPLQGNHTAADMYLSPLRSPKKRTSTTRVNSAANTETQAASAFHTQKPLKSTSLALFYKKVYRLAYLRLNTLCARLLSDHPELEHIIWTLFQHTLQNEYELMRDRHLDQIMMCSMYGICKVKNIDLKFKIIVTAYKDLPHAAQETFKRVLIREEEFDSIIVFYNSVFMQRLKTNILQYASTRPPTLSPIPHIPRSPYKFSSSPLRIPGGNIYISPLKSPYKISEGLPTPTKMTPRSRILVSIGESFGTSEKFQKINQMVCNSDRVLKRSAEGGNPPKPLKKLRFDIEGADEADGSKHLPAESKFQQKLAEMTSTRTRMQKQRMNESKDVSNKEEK
The experiment in a line: co-immunoprecipitation from C2C12 myotube extracts, Western blot. In general terms: A western blot detects proteins with antibodies after separation by electrophoresis.

Assay [2] deals with T2, hyperphosphorylated pRb (endogenous, proliferating C2C12 myoblasts, GM) (mouse, UniProt P13405 2-921, hyperphosphorylated (sites not given)).
T2 construct: Endogenous protein in extracts of cells kept in growth medium
T2 sequence (looked up): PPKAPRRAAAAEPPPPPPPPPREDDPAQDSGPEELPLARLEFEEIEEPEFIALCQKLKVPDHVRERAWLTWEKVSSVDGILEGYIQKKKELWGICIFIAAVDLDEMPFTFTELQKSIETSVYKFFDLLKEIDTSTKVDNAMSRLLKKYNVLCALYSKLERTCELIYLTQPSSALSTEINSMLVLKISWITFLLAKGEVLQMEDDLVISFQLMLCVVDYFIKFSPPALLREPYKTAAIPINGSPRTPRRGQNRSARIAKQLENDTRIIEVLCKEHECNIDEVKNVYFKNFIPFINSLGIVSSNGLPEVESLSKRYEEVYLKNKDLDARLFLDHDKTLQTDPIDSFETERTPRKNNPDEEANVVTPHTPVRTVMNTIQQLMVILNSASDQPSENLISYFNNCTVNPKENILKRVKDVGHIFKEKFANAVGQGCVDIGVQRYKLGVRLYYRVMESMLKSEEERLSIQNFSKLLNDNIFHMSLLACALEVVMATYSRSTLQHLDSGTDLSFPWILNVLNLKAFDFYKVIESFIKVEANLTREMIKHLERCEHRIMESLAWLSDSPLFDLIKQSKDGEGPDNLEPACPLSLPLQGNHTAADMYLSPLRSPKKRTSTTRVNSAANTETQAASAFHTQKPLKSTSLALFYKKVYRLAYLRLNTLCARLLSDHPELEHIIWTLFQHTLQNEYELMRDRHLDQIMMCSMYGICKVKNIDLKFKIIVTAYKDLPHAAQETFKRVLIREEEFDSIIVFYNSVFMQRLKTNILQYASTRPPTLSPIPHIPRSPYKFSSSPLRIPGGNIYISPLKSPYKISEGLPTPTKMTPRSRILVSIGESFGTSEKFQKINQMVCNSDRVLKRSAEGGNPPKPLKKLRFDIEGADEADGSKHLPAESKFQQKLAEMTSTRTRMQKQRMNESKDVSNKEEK
The experiment in a line: co-immunoprecipitation from C2C12 myoblast extracts, Western blot.

Assay [3] has as its target T3, GST-pRb wt (UniProt P06400 379-928, limits assumed).
T3 construct: Expressed in bacteria; the whole protein is named here; also called GST-Rb (WT); GST-RB (WT); not shown: GST tag
T3 sequence (looked up): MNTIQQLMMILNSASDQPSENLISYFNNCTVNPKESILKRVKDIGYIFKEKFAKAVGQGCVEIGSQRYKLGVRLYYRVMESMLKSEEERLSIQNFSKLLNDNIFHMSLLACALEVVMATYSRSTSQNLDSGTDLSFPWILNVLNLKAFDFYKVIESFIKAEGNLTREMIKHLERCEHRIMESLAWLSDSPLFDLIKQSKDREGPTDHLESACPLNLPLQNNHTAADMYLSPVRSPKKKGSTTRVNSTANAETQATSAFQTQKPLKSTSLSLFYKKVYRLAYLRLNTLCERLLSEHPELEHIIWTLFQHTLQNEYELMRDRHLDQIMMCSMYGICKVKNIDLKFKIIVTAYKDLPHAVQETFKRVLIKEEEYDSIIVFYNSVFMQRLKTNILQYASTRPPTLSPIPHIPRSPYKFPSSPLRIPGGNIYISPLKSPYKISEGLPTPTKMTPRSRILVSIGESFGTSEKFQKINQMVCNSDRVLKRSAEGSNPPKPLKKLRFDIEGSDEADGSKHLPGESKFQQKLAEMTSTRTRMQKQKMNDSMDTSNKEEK
The experiment in a line: GST pull-down from extracts of transfected pRb-/- 3T3 cells, Western blot (data not shown). The procedure:
The association with MyoD was monitored at different stages of myogenic conversion (GM and DM for 36 hours) by Western blot using anti-MyoD antibodies. In FIG. 9B, pRb−/−p53±double knock out derived 3T3 cells were transfected with Flag-HDAC1 and myc-MyoD. Nuclear extracts were prepared and subsequently incubated with increasing amounts of either GST-pRbwt or GST-pRbN757F. […] The HDAC1 present in the supernatant of the GST pull-down was immunoprecipitated with anti-Flag conjugated beads, and the associated MyoD was detected by Western blot by using anti-myc antibodies. In FIG. 9C (upper panel), a graph illustrates the ability to activate MCK-luc reporter by MyoD transiently expressed in pRb−/−p53±3T3 fibroblasts, evaluated with or without the co-expression of pRb wt or pRb N757F. In the lower panel of […], levels of endogenous MHC, p21, myogenin, tubulin, and ectopically produced pRb were evaluated by Western blot in pRb−/−p53±3T3 fibroblasts after transient expression of MyoD alone or in conjunction with either pRb wt or pRb N757F. FIG. 9D is a graph illustrating the ability to activate the MCK-luc reporter by MyoD and MEF2C alone, or in combination with E12, in pRb−/−p53±double knock out derived 3T3 cells was evaluated with or without the co-expression of pRb wt or pRb N757F. […] Transcriptional activation was measured by luciferase assay. […]

B1: MyoD (endogenous, in extracts of C2C12 cells; also endogenous MyoD of MD3 and CC42 cells) (other, mouse, UniProt P10085 1-318, looked up)
chain: MELLSPPLRDIDLTGPDGSLCSFETADDFYDDPCFDSPDLRFFEDLDPRLVHMGALLKPEEHAHFPTAVHPGPGAREDEHVRAPSGHHQAGRCLLWACKACKRKTTNADRRKAATMRERRRLSKVNEAFETLKRCTSSNPNQRLPKVEILRNAIRYIEGLQALLRDQDAAPPGAAAFYAPGPLPPGRGSEHYSGDSDASSPRSNCSDGMMDYSGPPSGPRRQNGYDTAYYSEAARESRPGKSAAVSSLDCLSSIVERISTDSPAAPALLLADAPPESPPGPPEGASLSDTEQGTQTPSPDAAPQCPAGSNPNAIYQVL
notes: Transcription factor (bHLH)
On to B1, for which the binding result in assay [1] and in assay [2] was “no binding” throughout.

B2: myc-MyoD (expressed from a transfected vector in pRb-/- 3T3 cells) (other, UniProt P10085 1-318, looked up)
chain: MELLSPPLRDIDLTGPDGSLCSFETADDFYDDPCFDSPDLRFFEDLDPRLVHMGALLKPEEHAHFPTAVHPGPGAREDEHVRAPSGHHQAGRCLLWACKACKRKTTNADRRKAATMRERRRLSKVNEAFETLKRCTSSNPNQRLPKVEILRNAIRYIEGLQALLRDQDAAPPGAAAFYAPGPLPPGRGSEHYSGDSDASSPRSNCSDGMMDYSGPPSGPRRQNGYDTAYYSEAARESRPGKSAAVSSLDCLSSIVERISTDSPAAPALLLADAPPESPPGPPEGASLSDTEQGTQTPSPDAAPQCPAGSNPNAIYQVL
notes: also called myc-tagged MyoD; not shown: myc tag
In the case of B2, in assay [3], the binding result is given as “no binding”.
